{"source": "paper PMC4652773", "about": "“Functional significance of protein assemblies predicted by the crystal structure of the restriction endonuclease BsaWI”", "binders": {"B1": {"name": "SP (dsDNA)", "DNA 1": "GCCTTTCGGTTTACCGGTGTCATTCCGCTG", "DNA 2": "CAGCGGAATGACACCGGTAAACCGAAAGGC"}}, "experiment_in_all_cases": "EMSA; 5 mM Ca2+; EMSA: 40 mM Tris-acetate pH 8.3, 0.1 mg/ml BSA, 10% glycerol, 5 mM CaCl2 or 0.1 mM EDTA, 1 nM DNA, room temperature, 15 min", "key": {"BsaWI K85A": {"target": "T1, BsaWI K85A (UniProt Q6UQ65 1-272, K85A)", "T1 sequence": "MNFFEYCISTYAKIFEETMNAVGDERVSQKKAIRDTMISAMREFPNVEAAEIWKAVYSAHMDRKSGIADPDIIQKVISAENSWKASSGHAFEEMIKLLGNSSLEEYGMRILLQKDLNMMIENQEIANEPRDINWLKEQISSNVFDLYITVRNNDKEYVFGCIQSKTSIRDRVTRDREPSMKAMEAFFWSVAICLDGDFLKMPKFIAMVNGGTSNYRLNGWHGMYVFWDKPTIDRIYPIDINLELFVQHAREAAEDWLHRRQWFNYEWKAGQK", "settings": "protein: recombinant; chain copies: 4; label: 33P; blunt"}, "BsaWI E128A&W262A": {"target": "T2, BsaWI E128A&W262A (UniProt Q6UQ65 1-272, E128A;W262A)", "T2 sequence": "T1 sequence with A85K, E128A, W262A", "settings": "protein: recombinant; chain copies: 2; label: 33P; blunt"}, "BsaWI wt": {"target": "T3, BsaWI wt (UniProt Q6UQ65 1-272)", "T3 sequence": "T1 sequence with A85K", "settings": "protein: recombinant; chain copies: 4; label: 33P; blunt"}, "BsaWI W262A": {"target": "T4, BsaWI W262A (UniProt Q6UQ65 1-272, W262A)", "T4 sequence": "T1 sequence with A85K, W262A", "settings": "protein: recombinant; chain copies: 2; label: 33P; blunt"}, "BsaWI R259A": {"target": "T5, BsaWI R259A (UniProt Q6UQ65 1-272, R259A)", "T5 sequence": "T1 sequence with A85K, R259A", "settings": "protein: recombinant; chain copies: 2; label: 33P; blunt"}}, "note": "Where a chain is given by its changes, count along the chain named."}
{"binder": "B1", "values": [{"measurement": "Kd", "setting": "BsaWI K85A", "value": "229 ± 9.1", "unit": "nM"}, {"measurement": "Kd", "setting": "BsaWI E128A&W262A", "value": "2.7 ± 0.7", "unit": "nM"}, {"measurement": "Kd", "setting": "BsaWI wt", "value": "2.9 ± 0.4", "unit": "nM"}, {"measurement": "Kd", "setting": "BsaWI W262A", "value": "2.7 ± 0.8", "unit": "nM"}, {"measurement": "Kd", "setting": "BsaWI R259A", "value": "2 ± 0.3", "unit": "nM"}]}
